According to patent US20140087995A1 (published 2014):
Numbered stars: 1 amine (or outer) side, 2 acyl side, 3 side chain; on linkers, the order of the positions; unused ones are H or OH. Bridge positions count the residues as written; N and C are the ends. Side chains are listed from the residue outwards. Ends that are not written are not given here. * marks the point of attachment. C20 diacid = O=C(O)CCCCCCCCCCCCCCCCCCC(=O)*; γGlu = O=C(O)[C@H](CCC(=O)[*:2])N[*:1]

T1: human calcitonin receptor (human, UniProt P30988 25-474)
T1 construct: whole, on cells; Membranes of a stably transfected BHK cell line (Assay VII); also called hCTR; hCT
T1 sequence (looked up): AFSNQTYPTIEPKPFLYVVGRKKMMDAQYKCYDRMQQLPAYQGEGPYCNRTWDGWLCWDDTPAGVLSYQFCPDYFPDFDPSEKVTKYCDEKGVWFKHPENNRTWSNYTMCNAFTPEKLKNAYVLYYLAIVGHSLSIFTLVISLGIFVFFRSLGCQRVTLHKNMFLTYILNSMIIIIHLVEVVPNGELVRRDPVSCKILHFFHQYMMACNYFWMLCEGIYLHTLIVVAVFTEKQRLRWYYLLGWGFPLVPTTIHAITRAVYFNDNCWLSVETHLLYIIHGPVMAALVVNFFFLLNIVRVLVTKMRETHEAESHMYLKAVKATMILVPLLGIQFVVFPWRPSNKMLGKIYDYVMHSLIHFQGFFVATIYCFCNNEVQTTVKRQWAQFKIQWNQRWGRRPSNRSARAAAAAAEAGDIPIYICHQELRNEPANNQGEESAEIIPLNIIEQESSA

T2: rat amylin receptor (rat calcitonin receptor + rat RAMP 3) (rat, UniProt P32214 25-516; Q9JJ73 23-147)
T2 construct: whole, on cells; Membranes of transiently transfected BHK tk'ts 13 cells (Assay VI); also called rAmylin-R; rat amylin 3(a) receptor
T2 sequence (looked up) 1: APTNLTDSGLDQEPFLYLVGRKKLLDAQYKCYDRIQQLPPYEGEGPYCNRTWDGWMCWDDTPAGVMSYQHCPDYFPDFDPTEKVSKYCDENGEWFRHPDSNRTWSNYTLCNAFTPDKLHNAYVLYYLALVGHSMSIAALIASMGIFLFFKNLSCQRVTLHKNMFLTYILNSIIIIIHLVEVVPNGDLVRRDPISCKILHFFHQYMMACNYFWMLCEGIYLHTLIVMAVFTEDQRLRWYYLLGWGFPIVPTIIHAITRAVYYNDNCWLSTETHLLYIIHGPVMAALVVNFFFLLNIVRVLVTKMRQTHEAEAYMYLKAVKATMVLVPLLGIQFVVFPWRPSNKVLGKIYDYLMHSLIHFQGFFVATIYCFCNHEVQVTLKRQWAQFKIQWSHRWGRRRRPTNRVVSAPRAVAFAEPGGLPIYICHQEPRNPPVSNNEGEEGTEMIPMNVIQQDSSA
T2 sequence (looked up) 2: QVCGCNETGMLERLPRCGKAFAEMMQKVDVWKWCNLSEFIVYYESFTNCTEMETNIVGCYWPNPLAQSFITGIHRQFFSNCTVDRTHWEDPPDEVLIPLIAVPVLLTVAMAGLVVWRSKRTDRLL

T3: rat calcitonin receptor (rat, UniProt P32214 25-516)
T3 construct: whole, on cells; Membranes of transiently transfected BHK tk'ts 13 cells (Assay VIII); also called rCTR
T3 sequence (looked up): T2 sequence (looked up) 1

B1: N^ε1-[(4S)-4-carboxy-4-(19-carboxynonadecanoylamino)butanoyl]-[Ala14,Arg17,Pro21,Pro27,Pro34]-h-amylin (peptide)
peptide: K([γGlu-C20 diacid])CNTATCATQRLAAFLRHSSPNFGAIPSSTNVGPNTY-NH2
modifications: disulfide 2-7; N-terminus assumed
SMILES: CC[C@H](C)[C@H](NC(=O)[C@H](C)NC(=O)CNC(=O)[C@H](Cc1ccccc1)NC(=O)[C@H](CC(N)=O)NC(=O)[C@@H]1CCCN1C(=O)[C@H](CO)NC(=O)[C@H](CO)NC(=O)[C@H](Cc1c[nH]cn1)NC(=O)[C@H](CCCNC(=N)N)NC(=O)[C@H](CC(C)C)NC(=O)[C@H](Cc1ccccc1)NC(=O)[C@H](C)NC(=O)[C@H](C)NC(=O)[C@H](CC(C)C)NC(=O)[C@H](CCCNC(=N)N)NC(=O)[C@H](CCC(N)=O)NC(=O)[C@@H](NC(=O)[C@H](C)NC(=O)[C@@H]1CSSC[C@H](NC(=O)[C@@H](N)CCCCNC(=O)CC[C@H](NC(=O)CCCCCCCCCCCCCCCCCCC(=O)O)C(=O)O)C(=O)N[C@@H](CC(N)=O)C(=O)N[C@@H]([C@@H](C)O)C(=O)N[C@@H](C)C(=O)N[C@@H]([C@@H](C)O)C(=O)N1)[C@@H](C)O)C(=O)N1CCC[C@H]1C(=O)N[C@@H](CO)C(=O)N[C@@H](CO)C(=O)N[C@H](C(=O)N[C@@H](CC(N)=O)C(=O)N[C@H](C(=O)NCC(=O)N1CCC[C@H]1C(=O)N[C@@H](CC(N)=O)C(=O)N[C@H](C(=O)N[C@@H](Cc1ccc(O)cc1)C(N)=O)[C@@H](C)O)C(C)C)[C@@H](C)O
notes: also called compound 94
B2: N^ε1-[(4S)-4-carboxy-4-(19-carboxynonadecanoylamino)butanoyl]-[Arg14,Arg17,Pro21,Pro27]-h-amylin (peptide)
peptide: K([γGlu-C20 diacid])CNTATCATQRLARFLRHSSPNFGAIPSSTNVGSNTY-NH2
modifications: disulfide 2-7; N-terminus assumed
SMILES: CC[C@H](C)[C@H](NC(=O)[C@H](C)NC(=O)CNC(=O)[C@H](Cc1ccccc1)NC(=O)[C@H](CC(N)=O)NC(=O)[C@@H]1CCCN1C(=O)[C@H](CO)NC(=O)[C@H](CO)NC(=O)[C@H](Cc1c[nH]cn1)NC(=O)[C@H](CCCNC(=N)N)NC(=O)[C@H](CC(C)C)NC(=O)[C@H](Cc1ccccc1)NC(=O)[C@H](CCCNC(=N)N)NC(=O)[C@H](C)NC(=O)[C@H](CC(C)C)NC(=O)[C@H](CCCNC(=N)N)NC(=O)[C@H](CCC(N)=O)NC(=O)[C@@H](NC(=O)[C@H](C)NC(=O)[C@@H]1CSSC[C@H](NC(=O)[C@@H](N)CCCCNC(=O)CC[C@H](NC(=O)CCCCCCCCCCCCCCCCCCC(=O)O)C(=O)O)C(=O)N[C@@H](CC(N)=O)C(=O)N[C@@H]([C@@H](C)O)C(=O)N[C@@H](C)C(=O)N[C@@H]([C@@H](C)O)C(=O)N1)[C@@H](C)O)C(=O)N1CCC[C@H]1C(=O)N[C@@H](CO)C(=O)N[C@@H](CO)C(=O)N[C@H](C(=O)N[C@@H](CC(N)=O)C(=O)N[C@H](C(=O)NCC(=O)N[C@@H](CO)C(=O)N[C@@H](CC(N)=O)C(=O)N[C@H](C(=O)N[C@@H](Cc1ccc(O)cc1)C(N)=O)[C@@H](C)O)C(C)C)[C@@H](C)O
notes: also called compound 83
B3: N^ε1-[(4S)-4-carboxy-4-(19-carboxynonadecanoylamino)butanoyl]-[Glu14,Arg17,Pro21,Pro27,Arg34,Glu35]-h-amylin (peptide)
peptide: K([γGlu-C20 diacid])CNTATCATQRLAEFLRHSSPNFGAIPSSTNVGRETY-NH2
modifications: disulfide 2-7; N-terminus assumed
SMILES: CC[C@H](C)[C@H](NC(=O)[C@H](C)NC(=O)CNC(=O)[C@H](Cc1ccccc1)NC(=O)[C@H](CC(N)=O)NC(=O)[C@@H]1CCCN1C(=O)[C@H](CO)NC(=O)[C@H](CO)NC(=O)[C@H](Cc1c[nH]cn1)NC(=O)[C@H](CCCNC(=N)N)NC(=O)[C@H](CC(C)C)NC(=O)[C@H](Cc1ccccc1)NC(=O)[C@H](CCC(=O)O)NC(=O)[C@H](C)NC(=O)[C@H](CC(C)C)NC(=O)[C@H](CCCNC(=N)N)NC(=O)[C@H](CCC(N)=O)NC(=O)[C@@H](NC(=O)[C@H](C)NC(=O)[C@@H]1CSSC[C@H](NC(=O)[C@@H](N)CCCCNC(=O)CC[C@H](NC(=O)CCCCCCCCCCCCCCCCCCC(=O)O)C(=O)O)C(=O)N[C@@H](CC(N)=O)C(=O)N[C@@H]([C@@H](C)O)C(=O)N[C@@H](C)C(=O)N[C@@H]([C@@H](C)O)C(=O)N1)[C@@H](C)O)C(=O)N1CCC[C@H]1C(=O)N[C@@H](CO)C(=O)N[C@@H](CO)C(=O)N[C@H](C(=O)N[C@@H](CC(N)=O)C(=O)N[C@H](C(=O)NCC(=O)N[C@@H](CCCNC(=N)N)C(=O)N[C@@H](CCC(=O)O)C(=O)N[C@H](C(=O)N[C@@H](Cc1ccc(O)cc1)C(N)=O)[C@@H](C)O)C(C)C)[C@@H](C)O
B4: N^ε1-[(4S)-4-carboxy-4-(19-carboxynonadecanoylamino)butanoyl]-[Glu14,Arg17,Pro21,Pro27,His34,Glu35]-h-amylin (peptide)
peptide: K([γGlu-C20 diacid])CNTATCATQRLAEFLRHSSPNFGAIPSSTNVGHETY-NH2
modifications: disulfide 2-7; N-terminus assumed
SMILES: CC[C@H](C)[C@H](NC(=O)[C@H](C)NC(=O)CNC(=O)[C@H](Cc1ccccc1)NC(=O)[C@H](CC(N)=O)NC(=O)[C@@H]1CCCN1C(=O)[C@H](CO)NC(=O)[C@H](CO)NC(=O)[C@H](Cc1c[nH]cn1)NC(=O)[C@H](CCCNC(=N)N)NC(=O)[C@H](CC(C)C)NC(=O)[C@H](Cc1ccccc1)NC(=O)[C@H](CCC(=O)O)NC(=O)[C@H](C)NC(=O)[C@H](CC(C)C)NC(=O)[C@H](CCCNC(=N)N)NC(=O)[C@H](CCC(N)=O)NC(=O)[C@@H](NC(=O)[C@H](C)NC(=O)[C@@H]1CSSC[C@H](NC(=O)[C@@H](N)CCCCNC(=O)CC[C@H](NC(=O)CCCCCCCCCCCCCCCCCCC(=O)O)C(=O)O)C(=O)N[C@@H](CC(N)=O)C(=O)N[C@@H]([C@@H](C)O)C(=O)N[C@@H](C)C(=O)N[C@@H]([C@@H](C)O)C(=O)N1)[C@@H](C)O)C(=O)N1CCC[C@H]1C(=O)N[C@@H](CO)C(=O)N[C@@H](CO)C(=O)N[C@H](C(=O)N[C@@H](CC(N)=O)C(=O)N[C@H](C(=O)NCC(=O)N[C@@H](Cc1c[nH]cn1)C(=O)N[C@@H](CCC(=O)O)C(=O)N[C@H](C(=O)N[C@@H](Cc1ccc(O)cc1)C(N)=O)[C@@H](C)O)C(C)C)[C@@H](C)O
notes: also called compound 107
B5: N^ε1-[(4S)-4-carboxy-4-(19-carboxynonadecanoylamino)butanoyl]-[Glu14,Arg17,Pro21,Pro27,Pro34,Arg35]-h-amylin (peptide)
peptide: K([γGlu-C20 diacid])CNTATCATQRLAEFLRHSSPNFGAIPSSTNVGPRTY-NH2
modifications: disulfide 2-7; N-terminus assumed
SMILES: CC[C@H](C)[C@H](NC(=O)[C@H](C)NC(=O)CNC(=O)[C@H](Cc1ccccc1)NC(=O)[C@H](CC(N)=O)NC(=O)[C@@H]1CCCN1C(=O)[C@H](CO)NC(=O)[C@H](CO)NC(=O)[C@H](Cc1c[nH]cn1)NC(=O)[C@H](CCCNC(=N)N)NC(=O)[C@H](CC(C)C)NC(=O)[C@H](Cc1ccccc1)NC(=O)[C@H](CCC(=O)O)NC(=O)[C@H](C)NC(=O)[C@H](CC(C)C)NC(=O)[C@H](CCCNC(=N)N)NC(=O)[C@H](CCC(N)=O)NC(=O)[C@@H](NC(=O)[C@H](C)NC(=O)[C@@H]1CSSC[C@H](NC(=O)[C@@H](N)CCCCNC(=O)CC[C@H](NC(=O)CCCCCCCCCCCCCCCCCCC(=O)O)C(=O)O)C(=O)N[C@@H](CC(N)=O)C(=O)N[C@@H]([C@@H](C)O)C(=O)N[C@@H](C)C(=O)N[C@@H]([C@@H](C)O)C(=O)N1)[C@@H](C)O)C(=O)N1CCC[C@H]1C(=O)N[C@@H](CO)C(=O)N[C@@H](CO)C(=O)N[C@H](C(=O)N[C@@H](CC(N)=O)C(=O)N[C@H](C(=O)NCC(=O)N1CCC[C@H]1C(=O)N[C@@H](CCCNC(=N)N)C(=O)N[C@H](C(=O)N[C@@H](Cc1ccc(O)cc1)C(N)=O)[C@@H](C)O)C(C)C)[C@@H](C)O

target: T1, human calcitonin receptor; assay: ratio IC50 human calcitonin receptor / IC50 human amylin receptor (reference)
Procedure, shortened: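 Competition binding by SPA uses membrane preparations (35 ng/μL final) in pH 7.4 Hepes buffer with 1 mM CaCl2 and 5 mM MgCl₂. Incubation lasts 120 min at 25° C, and IC₅₀ comes from one-site fitting.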

Question: How did the “Ratio hCT/hAmylin binding” value turn out when B1 was run?
Answer: 46.3

Question: Which “Ratio hCT/hAmylin binding” value does the source give for B2 here?
Answer: 146

Question: With B3 as the binder, how does the “Ratio hCT/hAmylin binding” value read?
Answer: 28.5

Question: How did the “Ratio hCT/hAmylin binding” value turn out when B4 was run?
Answer: 11.1

Question: How did the “Ratio hCT/hAmylin binding” value turn out when B5 was run?
Answer: 38.6

target: T2, rat amylin receptor (rat calcitonin …); assay: SPA competition with 125I-rat amylin, membranes of BHK cells with rat calcitonin receptor + rat RAMP3 (Assay VI)

Question: B1 was tested. Which IC50 did it give?
Answer: 0.397 nM

Question: How did the IC50 turn out when B2 was run?
Answer: 2.83 nM

Question: Which IC50 does the source give for B3 here?
Answer: 1.06 nM

Question: B4 was tested. Which IC50 did it give?
Answer: 0.958 nM

Question: For B5, which IC50 is on record?
Answer: 0.339 nM

target: T3, rat calcitonin receptor; assay: SPA competition with 125I-calcitonin, membranes of BHK cells with rat calcitonin receptor (Assay VIII)

Question: Which IC50 does the source give for B1 here?
Answer: 111 nM

Question: How did the IC50 turn out when B2 was run?
Answer: 140 nM

Question: For B3, which IC50 is on record?
Answer: 86.1 nM

Question: Which IC50 does the source give for B4 here?
Answer: 33.1 nM

Question: Which IC50 does the source give for B5 here?
Answer: 15.4 nM

target: T3, rat calcitonin receptor; assay: ratio IC50 rat calcitonin receptor / IC50 rat amylin receptor (reference)

Question: Which “Ratio rCT/rAmylin binding” value does the source give for B1 here?
Answer: 280

Question: For B2, which “Ratio rCT/rAmylin binding” value is on record?
Answer: 49.7

Question: How did the “Ratio rCT/rAmylin binding” value turn out when B3 was run?
Answer: 81.1

Question: Which “Ratio rCT/rAmylin binding” value does the source give for B4 here?
Answer: 34.6

Question: For B5, which “Ratio rCT/rAmylin binding” value is on record?
Answer: 45.5
